Experimental data as given in PMC11618073.

Legend:
[1] = molecular target: heterotypic S. cerevisiae nucleosome (one Htz1–H2B dimer and one H2A–H2B dimer) (S. cerevisiae) (UniProt P04911); test: FRET or BRET; single-molecule FRET (prism-TIRF); biotinylated nucleosome or hexasome with Cy3 on the 2-bp DNA overhang immobilised via neutravidin; 10 nM SWR1(647N) injected; 25 mM Tris-HCl pH 7.8, 100 mM KCl, 4% glycerol, 1 mM EDTA, 2 mM MgCl2, 0.2 mg/ml BSA; room temperature; 100-ms frames
[2] = molecular target: canonical S. cerevisiae nucleosome (two H2A–H2B dimers) on Widom 601 DNA (S. cerevisiae) (UniProt P04911); test: single-molecule fluorescence colocalisation; surface-immobilised 113N2.AF488 nucleosome; 5 nM SWR1(647N) with 1 mM ATP injected; 25 mM Tris-HCl pH 7.8, 100 mM KCl, 4% glycerol, 1 mM EDTA, 2 mM MgCl2, 0.2 mg/ml BSA; 22 °C; time to bind and bound lifetime from tMAVEN

dwell time on the Htz1–H2B face (single fast exponential decay) [1]: 0.63 s
lifetime of the bound complex (stably bound species) [2]: 19 min
time to bind [2]: 6.58 min
Substance: SWR1(Atto647N–Arp6) (from UniProt Q05471 1-1514; Q12509 1-438; Q03433 1-280; Q03388 1-795; Q03940 1-463; Q12464 1-471; P38326 1-303) (complex)
